Measurements as given in patent publication US20250154284A1 (INMAGENE PTE, published 2025).
Positions count from the first letter of the chain named. One block for each binder: values may come before it.

What was measured:
[1] = target: T1, recombinant human MASP-2 protein (human, UniProt O00187 16-686); experiment: BLI (Gator), antibody on Protein A biosensor, human MASP-2, 30 C
T1 construct: Used as analyte in BLI and SPR; also called hMASP-2; hMASP2-FL
Method: The assay was performed at 30° C. and the kinetics buffer was 1×PBS (136 mM NaCl, 8 mM […], 2 mM KH₂PO₄, 2.6 mM KCl) with 0.1% BSA and 0.005% Tween-20, pH7.4. Diluted antibodies and human MASP-2 were added to the corresponding well. After loading human MASP-2, biosensor detected the association and dissociation of antibodies. The regeneration of biosensors was in buffer 10 mM glycine, pH2.0.

[2] = target: T1, recombinant human MASP-2 protein; experiment: BLI (Gator), antibody on Protein A biosensor, recombinant MASP-2 25-200 nM, 30 C
Method: Recombinant MASP-2 protein was diluted with kinetics buffer to get a concentration gradient: 200 nM, 100 nM, 50 nM, 25 nM, and 0 nM (reference control). Antibodies were immobilized onto Protein A biosensor after balance. A baseline was detected for 60 seconds. Then, antibody-antigen association was detected for 120 seconds to obtain data for Kₒₙ, followed by detection of dissociation in kinetic buffer for 120 seconds to obtain data for Koff. The regeneration of biosensors was done in buffer 10 mM glycine, pH2.0. All the kinetics data were collected at 30° C. Data were acquired with Gator Bioanalysis System.

[3] = target: T1, recombinant human MASP-2 protein; experiment: cell-based or functional assay

T1 sequence (O00187 16-686): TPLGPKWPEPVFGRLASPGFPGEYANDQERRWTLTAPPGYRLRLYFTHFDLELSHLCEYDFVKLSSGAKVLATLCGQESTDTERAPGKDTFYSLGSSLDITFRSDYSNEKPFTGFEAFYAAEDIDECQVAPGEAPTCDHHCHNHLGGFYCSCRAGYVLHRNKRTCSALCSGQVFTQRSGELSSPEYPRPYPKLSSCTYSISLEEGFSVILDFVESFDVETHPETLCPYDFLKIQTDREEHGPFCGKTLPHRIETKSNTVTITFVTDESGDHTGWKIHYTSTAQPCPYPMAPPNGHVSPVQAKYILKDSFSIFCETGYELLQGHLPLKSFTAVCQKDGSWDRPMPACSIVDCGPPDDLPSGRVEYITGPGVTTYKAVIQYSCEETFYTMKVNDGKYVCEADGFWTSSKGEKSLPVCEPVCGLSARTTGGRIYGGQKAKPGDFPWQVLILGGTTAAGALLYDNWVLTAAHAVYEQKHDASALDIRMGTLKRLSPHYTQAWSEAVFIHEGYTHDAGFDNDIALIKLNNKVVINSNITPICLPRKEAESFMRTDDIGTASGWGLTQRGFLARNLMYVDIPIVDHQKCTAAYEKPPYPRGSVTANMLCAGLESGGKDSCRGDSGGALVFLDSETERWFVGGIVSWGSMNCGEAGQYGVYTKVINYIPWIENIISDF

Kd [1]: 13.7 nM
koff [1]: 0.00107 s⁻¹
kon [1]: 77700 M⁻¹ s⁻¹
B3: 3E10-hu-11 (antibody, V domains shown)
VH: QVQLVESGGGVVQPGRSLRISCAASGFSLTTYGVHWVRQAPGKGLEWLGVIWKGGSTDYNAAFMSRLTISKDNSKSTVYIQMNSLRAEDTAVYYCVKTLELRRRDYYAMDYWGQGTLVTVSS
VL: DIVMTQSPDSLAVSLGERATINCKSSQNILYSSNQKNLLAWYQQKPGQPPKLLIYWASTRESGVPDRFSGSGSGTDFTLTISSLQAEDVAVYYCHQYFSSYTFGQGTKLEIK
notes: also called humanized 3E10 clone with 3E10-hu-VH-11

Kd [1]: 15.6 nM
koff [1]: 0.00107 s⁻¹
kon [1]: 68600 M⁻¹ s⁻¹
B5: 3E10-hu-8 (antibody, V domains shown)
VH: B3 VH with I20L, S76N, V96A
VL: B3 VL
notes: also called humanized 3E10 clone with 3E10-hu-VH-8

Kd [1]: 15.3 nM
koff [1]: 0.00111 s⁻¹
kon [1]: 72800 M⁻¹ s⁻¹
B6: 3E10-hu-10 (antibody, V domains shown)
VH: B3 VH with I20L
VL: B3 VL
notes: also called humanized 3E10 clone with 3E10-hu-VH-10

Kd [1]: 14.3 nM
koff [1]: 0.00103 s⁻¹
kon [1]: 72300 M⁻¹ s⁻¹
B7: 3E10-hu-12 (antibody, V domains shown)
VH: B3 VH with A24V
VL: B3 VL
notes: also called humanized 3E10 clone with 3E10-hu-VH-12

Kd [1]: 14.7 nM
koff [1]: 0.00107 s⁻¹
kon [1]: 72900 M⁻¹ s⁻¹
B8: 3E10-hu-7-2 (antibody, V domains shown)
VH: B3 VH with I20L, S28T, T30S, S76N
VL: B3 VL
notes: also called humanized 3E10 clone with 3E10-hu-VH-7-2

Kd [2]: < 0.1 nM
koff [2]: < 1e-06 s⁻¹
kon [2]: 29600 M⁻¹ s⁻¹
Kd [1]: 15.4 nM
koff [1]: 0.00113 s⁻¹
kon [1]: 73500 M⁻¹ s⁻¹
IC50 of C3 activation (mannan-coated plate, human serum) [3]: 4.14 ng/mL
IC50 of C4 activation (mannan-coated plate, human serum) [3]: 3.6 ng/mL
IC50 of C4 activation in 5% human serum [3]: 8.26 ng/mL
IC50 of C4 activation in 10% human serum (methods say 25%) [3]: 30.8 ng/mL
IC50 of C4 activation in 50% human serum [3]: 67.3 ng/mL
IC50 of MAC activation (mannan-coated plate, human serum) [3]: 3.27 ng/mL
B10: anti-MASP-2 antibody clone 3E10 (chimeric 3E10) (antibody, V domains shown)
VH: EVQLQQSGPGLVQSSQSLSITCTVSGFSLTTYGVHWVRLSPGKGLEWLGVIWKGGSTDYNAAFMSRLSITKDNSKSEVFFQMNSLQGDDSAIYYCVKTLELRRRDYYAMDYWGQGTSVTVSS
VL: DIVMTQTTSSLAVSAGEKVTMSCKSSQNILYSSNQKNLLAWYQQKPGQSPKLLIYWASTRESGVPNRFTGSGSGTDFSLTINSVQPEDLAVYYCHQYFSSYTFGGGTKLEMK
notes: Mouse variable regions; tested as a 'chimeric' antibody; also called 3E10-mus

More lines, now with the values behind:

B1: 3E10-hu-9 (antibody, V domains shown)
VH: B3 VH with I20L, V96A
VL: B3 VL
notes: also called humanized 3E10 clone with 3E10-hu-VH-9
Kd [1]: 12.8 nM
koff [1]: 0.000952 s⁻¹
kon [1]: 74200 M⁻¹ s⁻¹

B2: 3E10-hu-6 (antibody, V domains shown)
VH: B3 VH with I20L, S28T, T30S, S76N, V96A
VL: B3 VL
notes: also called humanized 3E10 clone with 3E10-hu-VH-6
Kd [1]: 15.2 nM
koff [1]: 0.000985 s⁻¹
kon [1]: 64600 M⁻¹ s⁻¹

B4: 3E10-hu-0 (antibody, V domains shown)
VH: QVQLVESGGGVVQPGRSLRLSCAASGFTFSTYGVHWVRQAPGKGLEWVAVIWKGGSTDYNAAFMSRFTISRDNSKNTIYIQMNSLRAEDTAVYYCAKTLELRRRDYYAMDYWGQGTLVTVSS
VL: B3 VL
notes: also called humanized 3E10 clone with 3E10-hu-VH-0
Kd [1]: 26.3 nM
koff [1]: 0.00102 s⁻¹
kon [1]: 38700 M⁻¹ s⁻¹

B9: 3E10-hu-7-1 (antibody, V domains shown)
VH: B3 VH with I20L, S28T, T30S, V96A
VL: B3 VL
notes: also called humanized 3E10 clone with 3E10-hu-VH-7-1
Kd [1]: 17.3 nM
koff [1]: 0.00114 s⁻¹
kon [1]: 65700 M⁻¹ s⁻¹
